Target: PSD-95, endogenous, in cultured cortical neurons (mouse) (UniProt Q62108)
Assay: cell-based or functional assay

Chain of PSD-95, endogenous, in cultured cortical neurons (mouse) (Q62108 whole entry): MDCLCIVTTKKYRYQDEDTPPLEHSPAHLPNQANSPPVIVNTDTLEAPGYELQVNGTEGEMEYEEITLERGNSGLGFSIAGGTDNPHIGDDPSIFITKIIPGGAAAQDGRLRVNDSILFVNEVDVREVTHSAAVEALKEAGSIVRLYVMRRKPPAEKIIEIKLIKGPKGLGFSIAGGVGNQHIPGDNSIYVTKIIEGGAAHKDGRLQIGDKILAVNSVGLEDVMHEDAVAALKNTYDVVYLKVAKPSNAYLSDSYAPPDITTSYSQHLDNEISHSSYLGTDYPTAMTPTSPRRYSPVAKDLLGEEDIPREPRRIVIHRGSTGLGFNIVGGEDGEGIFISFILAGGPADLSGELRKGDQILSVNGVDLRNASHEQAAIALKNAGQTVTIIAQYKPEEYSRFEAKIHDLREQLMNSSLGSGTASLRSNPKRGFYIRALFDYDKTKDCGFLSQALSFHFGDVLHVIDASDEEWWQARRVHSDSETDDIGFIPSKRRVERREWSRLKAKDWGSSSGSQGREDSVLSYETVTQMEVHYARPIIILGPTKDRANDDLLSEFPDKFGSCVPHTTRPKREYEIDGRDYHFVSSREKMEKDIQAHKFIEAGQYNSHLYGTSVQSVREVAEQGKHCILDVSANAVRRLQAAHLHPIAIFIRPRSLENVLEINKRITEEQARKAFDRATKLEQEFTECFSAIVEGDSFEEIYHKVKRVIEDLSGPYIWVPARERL

For Tat-NR2B9c (peptide), which NMDA-evoked cGMP production in cortical cultures (surrogate of NO production by nNOS) is on record?
The NMDA-evoked cGMP production in cortical cultures (surrogate of NO production by nNOS) was 39.5%.
